US20220306734A1 (H LUNDBECK A S, published 2022)
Like-named read-outs stand apart in the source and are kept apart here.

Legend:
[1] = molecular target: full-length (FL) human mGluR5 on BA/F3-mGluR5 clone 10C9 cells (human) (UniProt P41594); test: cell-based or functional assay
[2] = molecular target: T1, rat mGluR5 extracellular domain (rat-mGluR5-ECD) (rat, UniProt P31424 21-504); test: HTRF, soluble ECD
T1 construct: ECD construct made 'in a similar fashion' to the human one
Method: (§1) Binding of antibodies to mGluR5/mGluRJ measured via Homogeneous Time-Resolved Fluorescence (HTRF). Binding assays were performed using HTRF reagents from CisBio. Ten microliters of an antibody dilution series (highest final concentration of 30 nM) was incubated with 10 μl of mGluR-ECD (10 nM final concentration) in HTRF buffer (50 mM Phosphate buffer pH7, 0.8M KF (potassium fluoride), 0.2% BSA). Twenty microliters of Europium-labeled anti-hu-Fc donor (2 nM final concentration, CisBio Catalog No. 61HFCKLB) and 20 μl of XL665-labeled anti-Flag acceptor (60 nM final concentration, CisBio Catalog No. 61FG2XLB) were added to each well and incubated for 1 hour at room temperature. Alternatively, the antibody dilution series was incubated with 10 μl of biotinylated mGluR-ECD (10 nM final concentration), and 20 μl of Europium-labeled anti-hu-Fc donor (2 nM final concentration) and 20 μl of d2-labeled streptavidin acceptor (60 nM final concentration, CisBio Catalog No. 610SADLB) were added to each well. Fluorescence was measured at 620 and 665 nm with a delay of 300 μsec. Results were expressed as the ratio of signal at 665 nm over 620 nm. EC₅₀ values were calculated for binding of Ab1-Ab23 to human-mGluR5-ECD, of Ab1-Ab21 to rat-mGluR5-ECD, and of Ab1, Ab2 and Ab4-Ab12 to monkey-mGluR5-ECD and to human-mGluR1-ECD (TABLE 1).

[3] = molecular target: full-length (FL) human mGluR5 on BA/F3-mGluR5 clone 10C9 cells (human) (UniProt P41594); test: flow cytometry, BA/F3-mGluR5 10C9 cells, 10 ug/ml antibody
[4] = molecular target: human mGluR5 extracellular domain (human-mGluR5-ECD) (human) (UniProt P41594); test: HTRF, soluble ECD
Chain of human mGluR5 extracellular domain (human-mGluR5-ECD) (human) (P41594 other isoform, or with tags, fused parts or gaps): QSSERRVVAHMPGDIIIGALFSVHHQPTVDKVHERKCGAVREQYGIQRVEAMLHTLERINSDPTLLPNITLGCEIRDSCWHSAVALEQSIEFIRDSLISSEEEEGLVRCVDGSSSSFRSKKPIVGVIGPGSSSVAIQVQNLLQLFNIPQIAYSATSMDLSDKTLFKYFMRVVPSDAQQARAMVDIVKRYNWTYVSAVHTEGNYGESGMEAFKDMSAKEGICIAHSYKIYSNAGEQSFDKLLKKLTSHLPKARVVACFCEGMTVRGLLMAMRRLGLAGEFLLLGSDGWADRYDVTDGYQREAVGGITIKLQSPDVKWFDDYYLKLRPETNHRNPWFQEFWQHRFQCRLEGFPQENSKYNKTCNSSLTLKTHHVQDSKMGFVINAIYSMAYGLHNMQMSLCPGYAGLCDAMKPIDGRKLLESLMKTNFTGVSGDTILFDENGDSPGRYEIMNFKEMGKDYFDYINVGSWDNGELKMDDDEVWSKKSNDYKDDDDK

[5] = molecular target: human mGluR5 extracellular domain (human-mGluR5-ECD) (human) (UniProt P41594); test: HTRF, soluble ECD; remark: listed apart in the source
[6] = molecular target: T2, cynomolgus monkey mGluR5 extracellular domain (monkey-mGluR5-ECD) (cynomolgus monkey, UniProt P41594 21-580 (human entry), limits assumed); test: HTRF, soluble ECD
T2 construct: ECD construct made 'in a similar fashion' to the human one; also called cyno-mGluR5
T2 sequence (P41594 other isoform, or with tags, fused parts or gaps limits assumed): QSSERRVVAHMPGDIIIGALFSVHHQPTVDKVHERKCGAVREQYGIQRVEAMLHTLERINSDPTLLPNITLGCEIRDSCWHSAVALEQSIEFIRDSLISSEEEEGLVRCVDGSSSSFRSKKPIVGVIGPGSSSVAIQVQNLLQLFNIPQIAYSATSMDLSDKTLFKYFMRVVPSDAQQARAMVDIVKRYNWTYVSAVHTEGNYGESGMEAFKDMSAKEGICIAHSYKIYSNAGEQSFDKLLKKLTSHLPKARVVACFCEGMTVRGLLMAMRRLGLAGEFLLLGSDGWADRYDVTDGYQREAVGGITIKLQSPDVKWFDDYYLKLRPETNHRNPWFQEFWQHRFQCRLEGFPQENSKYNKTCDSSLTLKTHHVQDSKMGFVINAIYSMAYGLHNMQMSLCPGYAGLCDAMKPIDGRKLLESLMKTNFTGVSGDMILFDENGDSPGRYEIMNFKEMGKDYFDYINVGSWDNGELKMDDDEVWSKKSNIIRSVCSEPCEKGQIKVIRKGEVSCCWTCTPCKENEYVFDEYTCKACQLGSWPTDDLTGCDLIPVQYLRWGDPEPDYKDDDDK
Method: as §1

[7] = molecular target: T3, human mGluR1 extracellular domain (human-mGluR1-ECD) (human, UniProt Q13255 19-592, limits assumed); test: HTRF, soluble ECD
T3 construct: ECD construct made 'in a similar fashion' to the human mGluR5 one; also called hu-mGluR1
T3 sequence (Q13255 other isoform, or with tags, fused parts or gaps limits assumed): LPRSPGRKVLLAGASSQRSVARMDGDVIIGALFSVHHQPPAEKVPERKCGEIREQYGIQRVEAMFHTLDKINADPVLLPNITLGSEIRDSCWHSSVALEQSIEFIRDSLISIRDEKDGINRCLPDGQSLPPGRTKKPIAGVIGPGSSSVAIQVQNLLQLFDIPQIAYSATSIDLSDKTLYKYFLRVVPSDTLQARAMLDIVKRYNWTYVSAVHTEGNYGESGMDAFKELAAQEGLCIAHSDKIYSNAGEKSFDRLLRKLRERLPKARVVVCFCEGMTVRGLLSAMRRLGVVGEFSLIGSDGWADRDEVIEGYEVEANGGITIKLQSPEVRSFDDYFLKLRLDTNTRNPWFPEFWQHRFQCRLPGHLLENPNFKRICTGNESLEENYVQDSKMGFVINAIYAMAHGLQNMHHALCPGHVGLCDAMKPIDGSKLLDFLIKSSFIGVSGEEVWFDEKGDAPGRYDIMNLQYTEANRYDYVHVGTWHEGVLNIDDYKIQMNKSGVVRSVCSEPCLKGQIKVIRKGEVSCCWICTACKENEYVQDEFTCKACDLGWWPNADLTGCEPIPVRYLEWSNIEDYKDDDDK
Method: as §1

T1 sequence (P31424 other isoform, or with tags, fused parts or gaps limits assumed, form in doubt): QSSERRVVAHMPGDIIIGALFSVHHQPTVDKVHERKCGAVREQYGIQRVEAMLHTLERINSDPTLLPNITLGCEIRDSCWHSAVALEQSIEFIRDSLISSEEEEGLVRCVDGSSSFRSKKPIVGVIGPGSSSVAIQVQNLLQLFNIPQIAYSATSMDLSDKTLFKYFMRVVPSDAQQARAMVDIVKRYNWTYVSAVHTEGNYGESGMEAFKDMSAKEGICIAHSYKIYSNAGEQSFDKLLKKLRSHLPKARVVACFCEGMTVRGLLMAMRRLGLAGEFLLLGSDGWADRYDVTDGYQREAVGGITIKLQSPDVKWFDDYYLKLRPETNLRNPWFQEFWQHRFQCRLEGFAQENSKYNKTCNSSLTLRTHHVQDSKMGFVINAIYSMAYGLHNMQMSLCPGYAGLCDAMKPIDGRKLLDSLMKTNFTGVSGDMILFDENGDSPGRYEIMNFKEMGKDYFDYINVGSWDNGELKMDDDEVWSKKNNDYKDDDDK

Binder	pERK Assay Inhibition IC50-nM [1] [nM]	EC50 [2] [pM]	mGluR5 (FL) cell binding-fold over background [3] [fold]	EC50 [4] [pM]	EC50 [5] [pM]	EC50 [6] [pM]	binding result [7]
mGluR5 Ab19 (antibody, V domains shown, Rabbit variable regions on human heavy and light chain constant regions (chimeric)) VH: QEQLEESGGDLVKPEGSLTLTCTASGFSFSNYYYMCWVRQAPGKGLEWIACIYTSSGSTYYANWVNGRFTISRSTSLNTVTLQVTSLTAADTATYFCAKSFGVGGYSFNLWGQGTLVTVSS VL: AYDMTQTPASVEVAVGGTVTIKCQASQSISSYLSWYQQKPGQRPKLLIYRASTLASGVSSRFKGSGSGTEYSLSISGMECDDAATYYCQQGTTISDVDNVFGGGTEVVVKR	1.07	327	38.3	452	< 2000	–	–
mGluR5 Ab8 (antibody, V domains shown, Rabbit variable regions on human heavy and light chain constant regions (chimeric)) VH: QSVEESGGRLVTPGTPLTLTCSVSGIDLSSYAMSWVRQAPGKGLEWIGVIYASGSTYYASWAKGRFTISKTSTTVDLKITSPTTGDTATYFCVRDTTATYNYFNLWGQGTLVTVSS VL: AYDMTQTPASVEVAVGGTATIKCQASQSIYNYLAWYQQKPGQPPKLLIYEASTLASGVPSRFKGSGSGTEFTLTISDLECADAATYYCQQSLSPSNVGRRVFGGGTEVVVKR	2.29	–	32.1	748	< 2000	322	no binding
mGluR5 Ab3 (antibody, V domains shown, Rabbit variable regions on human heavy and light chain constant regions (chimeric)) VH: QSLEESGGRLVTPGTPLTLTCTVSGIDLSSYAVGWVRQAPGKGLEYIGIIYASGNTWYASWVKGRFTISKTSTTVDLKLASLTTEDTATYFCARGHGATYDYFNLWGPGTLVTVSS VL: AYDMTQTPASVEVAVGGTVTIKCQASQSISSYLAWYQQKPGQPPKLLIYDASDLASGVPSRFKGSGSGTEYTLTISGVQCDDAATYYCQQGLATANVDNVFGGGTEVVVKR	3.91	487	31.1	536	< 2000	–	–
mGluR5 Ab1 (antibody, V domains shown, Rabbit variable regions on human heavy and light chain constant regions (chimeric)) VH: QQQLEESGGGLVKPGGTLTLTCKVSGIDFSSYYYMCWVRQAPGKGLEWIACIYAGDGGTYYASWAKGRFTSSKTSSTTVTLQMTSLTAADTATYFCARGSGVGSYGYSLWGPGTLVTVSS VL: DIVMTQTPASVEAAVGGTVTIKCQASESIYSNLAWYQQKPGQPPKLLIYRASNLESGVPSRFKGSGSGTEFTLTISDLECADAATYYCQGYYASTTTNAFGGGTEVVVKR	0.14	497	40.8	268	< 2000	371	no binding
mGluR5 Ab18 (antibody, V domains shown, Rabbit variable regions on human heavy and light chain constant regions (chimeric)) VH: QQQLEESGGGLVKPGGTLTLTCKASGLDFSNYHYMCWVRQAPGKRPEWIACIYNGDGTTYDASWAKGRFTSSKTSSTTVTLQMTSLTAADTATYFCARGSGVGSYGYNLWGQGTLVTVSS VL: DIVMTQTPASVEAAVGGTVTIKCQASESIYSNLAWYQQKPGQPPKLLIYRASTLESGVPSRFKGSGSGTEFTLTISDLECADAATYYCQGYYASIITNAFGGGTEVVVKR	0.15	395	39.6	491	< 2000	–	–
mGluR5 Ab14 (antibody, V domains shown, Rabbit variable regions on human heavy and light chain constant regions (chimeric)) VH: QQQLEESGGGLVKPGGTLTLTCKGSGIDFNDYYYMCWVRQAPGKGLEWIACIYNGDGETYYANWAKGRFTISKTSSTTVTLQMTSLTAADTATYFCARGSGVGSYGYNFWGQGTLVTVSS VL: DIVMTQTPASVEAAVGGTVTIKCQASESIYSNLAWYQQKPGQPPKLLIYRASNLASGVPSRFKGSGSGTEFTLTISDLECADAATYYCQGYYASTVTNAFGGGTEVVVKR	0.15	308	40.6	371	< 2000	–	–
mGluR5 Ab17 (antibody, V domains shown, Rabbit variable regions on human heavy and light chain constant regions (chimeric)) VH: QRQLEESGGGLVKPGGALTLTCKASGIDFSSYYYICWVRQAPGKGLEWIACIYAGDGTTYYATWAEGRFTSSKTSSTTVTLQMTSLTAADTATYFCARGSGVGSYGYNLWGQGTLVTVSS VL: DIVMTQTPASVEAAVGGTVTIKCQASEYIYSNLAWYQQKPGQPPKLLIYRASTLESGVPSRFKGSGSGTEFTLTISDLECADAATYYCQGYFPSIITNAFGGGTEVVVKR	0.15	305	40.4	312	< 2000	–	–
mGluR5 Ab15 (antibody, V domains shown, Rabbit variable regions on human heavy and light chain constant regions (chimeric)) VH: QQLVESGGGLVKPGGTLTLTCKGSGIDFNDYYYICWVRQAPGKGLEWILCIYNGDGETYYANWAKGRFTISKTSSTTVTLQMTSLTGADTATYFCARGSGVGSYGYNFWGQGTLVTVSS VL: DIVMTQTPASVEAAVGGTVTIKCQASENIYSNLAWYQQKPGQPPKLLIYRASNLASGVPSRFKGSGSGTEFTLTISDLECADAATYYCQGYYASTVTNGFGGGTEVVVKR	0.18	448	41.3	506	< 2000	–	–
mGluR5 Ab23 (antibody, V domains shown) VH: QQQLEESGGGLVKPGGTLTLTCKASGIDFNDYYYMCWVRQAPGKGPEWIACIYNGDGDTYYANWAKGRFTISKTSSTTVTLQMTSLTAADTATYFCARGSGVGSYGYNLWGQGTLVTVSS VL: DIVMTQTPASVEAAVGGTVTIKCQASESIYSNLAWYQQKPGQPPKLLIYRASTLASGVPSRFKGSGSGTEFTLTISDLECADAATYYCQGYYASTITNVFGGGTEVVVKR	0.14	–	37.9	367	< 2000	–	–
mGluR5 Ab21 (antibody, V domains shown, Rabbit variable regions on human heavy and light chain constant regions (chimeric)) VH: QSLEESGGGLVQPGASLTLTCTASGFSFSSNYWICWVRQAPGKGLEWIGCIYTGTGITWYASWVNGRVTISSTSSTTVTLQVNSLTAADTATYFCARGSGDIAWAWDLWGQGTLVTVSS VL: DVVMTQTPASVSAAVGGTVTIKCQASQSIYTNLAWYQQKPGQPPKLLIYKASTLASGVSSRFKGSGSGTEFTLTISGVQCADAATYYCQCTGYGSSGWTFGGGTEVVVKR	1.41	229	34.2	684	< 2000	–	–
mGluR5 Ab20 (antibody, V domains shown) VH: QSVEESGGRLVTPGTPLTLTCTVSGFSLSDYGLNWVRQAPGKGLEWIGIIYASGSTYYANWAKGRFTISKTSTTVDLKMTSPTTEDTATYFCVRDSSATYDYFNLWGPGTLVTVSS VL: YDMTQTPASVEVAVGGTVTIKCQASQSISSYLAWYQQKPGQPPRLLIYGASNLASGVPSRFKGSGSGTEYTLTISDLECADAATYYCQQALSPSNVDNAFGGGTEVVVKR	2.36	–	26.1	364	< 2000	–	–
mGluR5 Ab16 (antibody, V domains shown, Rabbit variable regions on human heavy and light chain constant regions (chimeric)) VH: QSVEESGGRLVTPGTPLTLTCTASGFTISSYSMIWVRQAPGKGLESIGWINTGGSAYYANWAKGRFTISRTSTTVDLKMTSLTTEDTATYFCARDNNWSFNLWGQGTLVTVSS VL: DIVMTQTPSSVSAAVGGTVTIKCQASQSIGTNLAWYQQKSGQPPKRLTYRASNLESGVPSRFKGSGSGTEFTLTISDLECADAATYYCQGGYYREGNSPTYPFGGGTEVVVKR	0.17	427	40	439	< 2000	–	–
mGluR5 Ab13 (antibody, V domains shown, Rabbit variable regions on human heavy and light chain constant regions (chimeric)) VH: QSLEESGGDLVKPGASLTLTCTASGFSFSSSDYMCWVRQAPGKGLEWIGCIYTGDGTTYYASWAKGRFTISKTSSTTVTLQMTSLTAADTATYFCARGAGVGSYGYNLWGPGTLVTVSS VL: DIVMTQTPASVEAAVGDTVTINCQASQNIYSNLAWYQQKPGQPPKLLIYRASTLASGVPSRFKGSGSGTQFTLTISDLECADAATYYCQSYYASSISNYFGGGTEVVVKR	0.22	283	37.4	183	< 2000	–	–
